This is an account of results in US20090276160A1.

A value given as a limit tells only on which side of the number the result lay.

What all share (experiment): cell-based or functional assay
For experiment [1], the target named is Thrombin (Haematologic Technologies) (human) (UniProt P00734).
The target of experiment [2] is Hepatocyte growth factor activator (HGFA), activated 34 kDa short form, residues Val373 to Ser655 with a C-terminal poly-histidine tag (human) (UniProt Q04756).
Experiment [3] has as its target Tissue factor/factor VIIa complex: human tissue factor (residues 1-219) with human recombinant FVIIa (human) (UniProt P13726).
For experiment [4], the target named is Factor XIa (Haematologic Technologies) (human) (UniProt P03951).
The target of experiment [5] is Factor XIIa (American Diagnostica) (human) (UniProt P00748).
Experiment [6] deals with tPA (Activase, Genentech) (human) (UniProt P00750).
Sequence of tPA (Activase, Genentech) (human) (P00750 36-562 limits assumed): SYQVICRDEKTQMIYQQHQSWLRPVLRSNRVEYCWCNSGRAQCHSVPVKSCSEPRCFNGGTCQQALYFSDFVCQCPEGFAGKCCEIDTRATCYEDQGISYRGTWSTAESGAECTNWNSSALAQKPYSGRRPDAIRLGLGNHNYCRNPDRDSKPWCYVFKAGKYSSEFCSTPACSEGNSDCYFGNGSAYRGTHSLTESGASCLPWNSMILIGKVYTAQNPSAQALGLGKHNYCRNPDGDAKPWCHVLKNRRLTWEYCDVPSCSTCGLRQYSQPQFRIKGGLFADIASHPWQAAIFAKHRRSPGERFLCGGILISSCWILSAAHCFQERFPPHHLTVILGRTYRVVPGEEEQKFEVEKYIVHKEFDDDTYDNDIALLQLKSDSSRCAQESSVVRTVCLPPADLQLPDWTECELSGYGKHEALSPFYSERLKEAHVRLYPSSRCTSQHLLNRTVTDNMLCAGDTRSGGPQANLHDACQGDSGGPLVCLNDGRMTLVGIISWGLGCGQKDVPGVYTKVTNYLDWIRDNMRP
For experiment [7], the target named is Chymotrypsin (Sigma) (human) (UniProt P17538).
Sequence of Chymotrypsin (Sigma) (human) (P17538 19-263): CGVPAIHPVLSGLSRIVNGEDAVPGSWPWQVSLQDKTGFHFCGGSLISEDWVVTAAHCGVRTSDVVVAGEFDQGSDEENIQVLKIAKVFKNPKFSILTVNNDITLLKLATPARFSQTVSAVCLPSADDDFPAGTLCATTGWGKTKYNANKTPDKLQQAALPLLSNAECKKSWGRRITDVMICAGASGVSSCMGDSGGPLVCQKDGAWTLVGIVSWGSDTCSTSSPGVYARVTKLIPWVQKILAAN
The target of experiment [8] is Hepsin (residues 45-417) (human) (UniProt P05981).
Sequence of Hepsin (residues 45-417) (human) (P05981 45-417 limits assumed): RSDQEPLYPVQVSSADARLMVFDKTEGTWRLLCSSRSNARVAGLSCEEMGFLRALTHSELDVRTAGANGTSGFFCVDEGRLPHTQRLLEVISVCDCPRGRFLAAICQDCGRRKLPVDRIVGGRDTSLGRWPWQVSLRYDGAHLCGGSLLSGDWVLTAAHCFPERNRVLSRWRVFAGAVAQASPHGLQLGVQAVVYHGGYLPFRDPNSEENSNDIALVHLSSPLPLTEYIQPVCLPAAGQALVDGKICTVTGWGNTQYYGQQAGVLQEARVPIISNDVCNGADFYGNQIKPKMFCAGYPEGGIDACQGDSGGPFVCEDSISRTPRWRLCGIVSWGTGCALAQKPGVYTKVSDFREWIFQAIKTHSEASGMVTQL
Experiment [9] deals with uPA (Chemicon) (human) (UniProt P00749).
The target of experiment [10] is T1, Complement factor C1s (Calbiochem) (human) (UniProt P09871).
T1 sequence (looked up): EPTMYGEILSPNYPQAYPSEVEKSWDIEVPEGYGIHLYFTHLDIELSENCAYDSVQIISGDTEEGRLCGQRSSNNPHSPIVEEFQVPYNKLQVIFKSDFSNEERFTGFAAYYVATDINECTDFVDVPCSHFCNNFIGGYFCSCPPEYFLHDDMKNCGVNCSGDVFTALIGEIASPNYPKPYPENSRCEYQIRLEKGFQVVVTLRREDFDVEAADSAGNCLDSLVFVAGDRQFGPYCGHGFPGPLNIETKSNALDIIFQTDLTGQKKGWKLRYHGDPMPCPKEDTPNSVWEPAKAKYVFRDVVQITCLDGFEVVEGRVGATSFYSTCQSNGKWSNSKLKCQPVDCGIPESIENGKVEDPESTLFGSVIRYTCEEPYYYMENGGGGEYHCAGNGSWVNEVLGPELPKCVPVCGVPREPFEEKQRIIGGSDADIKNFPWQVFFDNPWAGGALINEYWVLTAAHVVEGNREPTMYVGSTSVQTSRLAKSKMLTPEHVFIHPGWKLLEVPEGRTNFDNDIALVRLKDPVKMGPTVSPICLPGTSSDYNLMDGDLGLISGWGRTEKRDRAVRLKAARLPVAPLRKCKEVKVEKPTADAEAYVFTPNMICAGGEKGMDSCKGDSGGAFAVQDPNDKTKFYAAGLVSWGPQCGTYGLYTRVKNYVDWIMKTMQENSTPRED

Experiment [11] has as its target T2, Matriptase (residues 615-855) (human) (UniProt Q9Y5Y6).
T2 sequence (looked up): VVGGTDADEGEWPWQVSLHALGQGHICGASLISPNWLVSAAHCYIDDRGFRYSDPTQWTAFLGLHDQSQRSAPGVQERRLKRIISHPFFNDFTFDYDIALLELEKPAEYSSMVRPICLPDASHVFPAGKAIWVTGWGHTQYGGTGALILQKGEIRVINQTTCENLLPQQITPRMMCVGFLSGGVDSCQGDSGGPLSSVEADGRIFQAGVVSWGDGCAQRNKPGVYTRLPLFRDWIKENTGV

Experiment [12] concerns the target Bovine trypsin (Worthington) (bovine) (UniProt P00760).
Experiment [13] deals with Plasmin (Haematologic Technologies) (human) (UniProt P00747).
Sequence of Plasmin (Haematologic Technologies) (human) (P00747 97-810 limits assumed): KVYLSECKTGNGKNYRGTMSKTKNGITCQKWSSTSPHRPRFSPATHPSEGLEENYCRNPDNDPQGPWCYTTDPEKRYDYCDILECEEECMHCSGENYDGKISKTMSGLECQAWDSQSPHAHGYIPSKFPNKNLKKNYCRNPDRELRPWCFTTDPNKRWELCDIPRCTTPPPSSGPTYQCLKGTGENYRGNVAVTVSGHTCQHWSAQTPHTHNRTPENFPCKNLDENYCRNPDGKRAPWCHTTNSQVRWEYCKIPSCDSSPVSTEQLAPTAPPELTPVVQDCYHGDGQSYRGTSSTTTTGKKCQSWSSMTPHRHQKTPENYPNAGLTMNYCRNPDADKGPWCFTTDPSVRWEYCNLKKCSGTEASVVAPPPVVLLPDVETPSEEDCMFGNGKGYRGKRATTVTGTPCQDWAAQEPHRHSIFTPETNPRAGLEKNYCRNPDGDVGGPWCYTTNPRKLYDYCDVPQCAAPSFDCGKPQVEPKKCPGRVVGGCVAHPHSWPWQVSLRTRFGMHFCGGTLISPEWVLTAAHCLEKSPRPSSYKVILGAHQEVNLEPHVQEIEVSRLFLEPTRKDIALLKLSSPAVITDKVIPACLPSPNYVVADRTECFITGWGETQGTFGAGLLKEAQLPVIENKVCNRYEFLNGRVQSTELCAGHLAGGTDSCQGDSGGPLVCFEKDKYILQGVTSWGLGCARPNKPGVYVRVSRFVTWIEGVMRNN
Experiment [14] addresses Factor Xa (Haematologic Technologies) (human) (UniProt P00742).
Experiment [15] addresses Plasma kallikrein (American Diagnostica) (human) (UniProt P03952).
Experiment [16] addresses Activated Protein C (Haematologic Technologies) (human) (UniProt P04070).

Sequence of sHAI-1B, soluble HAI-1B ectodomain (O43278 36-465 limits assumed): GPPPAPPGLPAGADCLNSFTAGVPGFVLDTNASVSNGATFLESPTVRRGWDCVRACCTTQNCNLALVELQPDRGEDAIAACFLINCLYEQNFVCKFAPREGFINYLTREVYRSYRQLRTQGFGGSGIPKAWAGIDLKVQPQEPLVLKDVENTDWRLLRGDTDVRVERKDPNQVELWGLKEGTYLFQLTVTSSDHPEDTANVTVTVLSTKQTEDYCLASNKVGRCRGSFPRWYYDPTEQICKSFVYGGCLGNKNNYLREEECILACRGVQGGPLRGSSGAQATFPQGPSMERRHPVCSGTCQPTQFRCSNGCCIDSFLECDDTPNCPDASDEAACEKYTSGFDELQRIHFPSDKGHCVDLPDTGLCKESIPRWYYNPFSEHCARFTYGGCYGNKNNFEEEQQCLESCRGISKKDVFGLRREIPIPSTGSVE
Sequence of Plasma kallikrein (American Diagnostica) (human) (P03952 20-638 limits assumed): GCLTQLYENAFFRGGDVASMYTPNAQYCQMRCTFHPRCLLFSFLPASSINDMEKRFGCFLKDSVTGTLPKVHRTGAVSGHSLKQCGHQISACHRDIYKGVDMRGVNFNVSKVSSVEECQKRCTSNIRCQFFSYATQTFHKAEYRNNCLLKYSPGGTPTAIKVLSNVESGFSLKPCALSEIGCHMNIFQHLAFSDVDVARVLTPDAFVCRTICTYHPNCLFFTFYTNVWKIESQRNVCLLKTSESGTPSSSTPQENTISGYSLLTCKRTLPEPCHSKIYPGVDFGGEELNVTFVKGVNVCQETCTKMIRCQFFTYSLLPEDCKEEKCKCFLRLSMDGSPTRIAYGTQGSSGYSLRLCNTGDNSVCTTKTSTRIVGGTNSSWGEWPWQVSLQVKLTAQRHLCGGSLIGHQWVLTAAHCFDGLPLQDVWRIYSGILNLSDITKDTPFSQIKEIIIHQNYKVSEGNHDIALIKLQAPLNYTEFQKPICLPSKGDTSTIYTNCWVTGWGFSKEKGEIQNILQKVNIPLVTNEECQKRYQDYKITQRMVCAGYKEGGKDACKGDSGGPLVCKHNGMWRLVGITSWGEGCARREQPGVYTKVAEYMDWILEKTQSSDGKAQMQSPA
Sequence of Hepatocyte growth factor activator (HGFA), activated 34 kDa short form, residues Val373 to Ser655 with a C-terminal poly-histidine tag (human) (Q04756 373-407, chain 1 of 2): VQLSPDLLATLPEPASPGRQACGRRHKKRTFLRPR
Sequence of Hepatocyte growth factor activator (HGFA), activated 34 kDa short form, residues Val373 to Ser655 with a C-terminal poly-histidine tag (human) (Q04756 408-655, chain 2 of 2): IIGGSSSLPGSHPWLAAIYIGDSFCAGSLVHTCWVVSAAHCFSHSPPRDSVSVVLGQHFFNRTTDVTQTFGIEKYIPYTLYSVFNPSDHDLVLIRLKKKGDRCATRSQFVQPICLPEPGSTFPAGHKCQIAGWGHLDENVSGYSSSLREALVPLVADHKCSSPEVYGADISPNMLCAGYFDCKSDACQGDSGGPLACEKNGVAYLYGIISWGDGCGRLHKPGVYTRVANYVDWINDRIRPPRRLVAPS
Sequence of Bovine trypsin (Worthington) (bovine) (P00760 24-246): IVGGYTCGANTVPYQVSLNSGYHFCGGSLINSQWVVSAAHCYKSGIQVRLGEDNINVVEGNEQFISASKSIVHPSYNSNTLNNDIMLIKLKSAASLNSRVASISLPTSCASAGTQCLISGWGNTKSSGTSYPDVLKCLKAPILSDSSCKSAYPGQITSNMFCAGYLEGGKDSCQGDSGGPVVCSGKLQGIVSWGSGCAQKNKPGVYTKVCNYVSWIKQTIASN
Sequence of Factor Xa (Haematologic Technologies) (human) (P00742 41-179 limits assumed, chain 1 of 2): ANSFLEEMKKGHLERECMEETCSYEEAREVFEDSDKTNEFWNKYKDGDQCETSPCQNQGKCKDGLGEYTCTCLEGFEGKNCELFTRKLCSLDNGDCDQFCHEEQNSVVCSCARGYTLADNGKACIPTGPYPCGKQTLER
Sequence of Factor Xa (Haematologic Technologies) (human) (P00742 235-488 limits assumed, chain 2 of 2): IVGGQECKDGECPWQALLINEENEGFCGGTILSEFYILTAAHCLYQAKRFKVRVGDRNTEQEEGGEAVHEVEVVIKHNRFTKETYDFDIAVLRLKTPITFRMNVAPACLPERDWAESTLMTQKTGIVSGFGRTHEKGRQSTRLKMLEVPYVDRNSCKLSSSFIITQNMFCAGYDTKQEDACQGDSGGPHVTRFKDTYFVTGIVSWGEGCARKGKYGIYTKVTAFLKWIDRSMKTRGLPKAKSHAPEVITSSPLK
Sequence of Activated Protein C (Haematologic Technologies) (human) (P04070 43-197, form in doubt, chain 1 of 2): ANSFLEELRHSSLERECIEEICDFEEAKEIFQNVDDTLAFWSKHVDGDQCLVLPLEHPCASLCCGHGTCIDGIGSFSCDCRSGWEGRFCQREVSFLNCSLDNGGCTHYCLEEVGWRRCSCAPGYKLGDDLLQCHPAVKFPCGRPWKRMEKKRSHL
Sequence of Activated Protein C (Haematologic Technologies) (human) (P04070 212-461, form in doubt, chain 2 of 2): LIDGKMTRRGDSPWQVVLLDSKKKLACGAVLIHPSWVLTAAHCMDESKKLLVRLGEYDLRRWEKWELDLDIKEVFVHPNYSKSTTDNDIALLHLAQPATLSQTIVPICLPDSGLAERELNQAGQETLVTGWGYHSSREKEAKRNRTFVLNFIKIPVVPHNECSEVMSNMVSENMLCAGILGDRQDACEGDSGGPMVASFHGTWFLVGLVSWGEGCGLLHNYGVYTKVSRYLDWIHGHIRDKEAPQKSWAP
Sequence of Tissue factor/factor VIIa complex: human tissue factor (residues 1-219) with human recombinant FVIIa (human) (P13726 33-251 limits assumed, chain 1 of 2): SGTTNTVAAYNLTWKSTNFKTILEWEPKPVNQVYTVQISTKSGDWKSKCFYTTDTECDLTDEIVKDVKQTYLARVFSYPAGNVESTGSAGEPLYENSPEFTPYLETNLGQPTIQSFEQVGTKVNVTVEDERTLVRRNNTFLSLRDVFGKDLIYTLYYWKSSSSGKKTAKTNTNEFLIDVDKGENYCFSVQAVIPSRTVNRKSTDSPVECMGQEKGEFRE
Sequence of Tissue factor/factor VIIa complex: human tissue factor (residues 1-219) with human recombinant FVIIa (human) (P08709 61-466 limits assumed, chain 2 of 2, further chain): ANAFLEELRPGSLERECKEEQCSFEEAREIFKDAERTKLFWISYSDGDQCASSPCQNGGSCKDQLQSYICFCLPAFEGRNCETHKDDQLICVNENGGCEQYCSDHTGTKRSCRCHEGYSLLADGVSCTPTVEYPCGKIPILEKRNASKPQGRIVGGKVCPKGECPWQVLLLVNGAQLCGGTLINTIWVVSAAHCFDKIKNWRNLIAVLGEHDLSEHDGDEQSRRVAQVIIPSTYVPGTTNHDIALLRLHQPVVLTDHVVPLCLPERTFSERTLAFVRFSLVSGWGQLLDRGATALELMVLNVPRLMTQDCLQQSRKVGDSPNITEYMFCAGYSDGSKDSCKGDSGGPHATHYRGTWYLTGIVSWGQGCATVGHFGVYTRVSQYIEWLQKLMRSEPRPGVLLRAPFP

Regarding “sHAI-1B, soluble HAI-1B ectodomain (from UniProt O43278 36-465)”, the IC50 (nM), inhibition of enzyme activity on chromogenic substrate was more than 2000 nM in [1]; 30.5 nM in [2]; more than 2000 nM in [3]; more than 2000 nM in experiment [4]; more than 2000 nM in experiment [5]; more than 2000 nM in experiment [6]. Besides, the IC50 (nM), inhibition of enzyme activity on chromogenic substrate is more than 2000 nM in experiment [7]; 21.1 nM in [8]; more than 2000 nM in [9]; more than 2000 nM in experiment [10]; 16.5 nM in experiment [11]; 2.4 nM in [12]. Besides, the IC50 (nM), inhibition of enzyme activity on chromogenic substrate in experiment [13] is 399 nM; in experiment [14], more than 2000 nM; in experiment [15], 686 nM; in experiment [16], more than 2000 nM. In addition, the IC50 (sHAI-1B)/IC50 (KD1) in experiment [2] was found to be 8; in [8], 3; in experiment [11] it was 10; in experiment [12], 3; in experiment [13], 3; in experiment [15] it was 33.
